Each block holds one binder with its values, some of them ahead of it.
Assays:
Assay in all cases: two-hybrid library CCmax;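 also: natural log of median RNA to DNA barcode read ratio; higher means stronger binding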
Details in all cases: mean of both orientations
P5-AA-12HGe-D = molecular target: T1, P5-AA-12HGe-D
T1 chain: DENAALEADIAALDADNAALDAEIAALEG

P5-AA-1HAA-L = molecular target: T2, P5-AA-1HAA-L
T2 chain: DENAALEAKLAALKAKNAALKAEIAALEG

P5-AA-1HAA-V = molecular target: T3, P5-AA-1HAA-V
T3 chain: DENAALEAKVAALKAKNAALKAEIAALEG

P5-AA-1HAA-Y = molecular target: T4, P5-AA-1HAA-Y
T4 chain: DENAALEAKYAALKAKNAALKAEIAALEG

P5-AA-1HGe-S = molecular target: T5, P5-AA-1HGe-S
T5 chain: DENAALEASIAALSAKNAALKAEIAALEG

P5-AA-1HGe-W = molecular target: T6, P5-AA-1HGe-W
T6 chain: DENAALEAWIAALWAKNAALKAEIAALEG

P5-AA-1HGe-Y = molecular target: T7, P5-AA-1HGe-Y
T7 chain: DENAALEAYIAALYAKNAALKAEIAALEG

P6-AA-12HAA-H = molecular target: T8, P6-AA-12HAA-H
T8 chain: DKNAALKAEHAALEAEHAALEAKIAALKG

P6-AA-12HAA-V = molecular target: T9, P6-AA-12HAA-V
T9 chain: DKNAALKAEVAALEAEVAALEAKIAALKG

4H2211-AA = molecular target: T10, 4H2211-AA
T10 chain: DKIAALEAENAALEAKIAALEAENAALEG

4H233-AA = molecular target: T11, 4H233-AA
T11 chain: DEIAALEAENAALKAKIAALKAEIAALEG

4H2726-AA = molecular target: T12, 4H2726-AA
T12 chain: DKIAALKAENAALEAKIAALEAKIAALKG

4H278-AA = molecular target: T13, 4H278-AA
T13 chain: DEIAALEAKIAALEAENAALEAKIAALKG

4H3664-AA = molecular target: T14, 4H3664-AA
T14 chain: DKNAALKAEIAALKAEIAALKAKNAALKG

4H3922-AA = molecular target: T15, 4H3922-AA
T15 chain: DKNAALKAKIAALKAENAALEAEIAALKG

4H662-AA = molecular target: T16, 4H662-AA
T16 chain: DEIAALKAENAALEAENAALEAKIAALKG

4H816-AA = molecular target: T17, 4H816-AA
T17 chain: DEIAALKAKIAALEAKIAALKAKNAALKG

4H1109-AA = molecular target: T18, 4H1109-AA
T18 chain: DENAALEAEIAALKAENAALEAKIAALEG

4H1391-AA = molecular target: T19, 4H1391-AA
T19 chain: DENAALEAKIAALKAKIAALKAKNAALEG

4H2713-AA = molecular target: T20, 4H2713-AA
T20 chain: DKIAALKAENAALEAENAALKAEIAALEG

4H2742-AA = molecular target: T21, 4H2742-AA
T21 chain: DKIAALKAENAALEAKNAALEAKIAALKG

4H3417-AA = molecular target: T22, 4H3417-AA
T22 chain: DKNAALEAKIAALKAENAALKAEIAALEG

4H3628-AA = molecular target: T23, 4H3628-AA
T23 chain: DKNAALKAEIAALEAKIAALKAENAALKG

4H3666-AA = molecular target: T24, 4H3666-AA
T24 chain: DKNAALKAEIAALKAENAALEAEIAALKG

4H1639-AA = molecular target: T25, 4H1639-AA
T25 chain: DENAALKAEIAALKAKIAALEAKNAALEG

4H2458-AA = molecular target: T26, 4H2458-AA
T26 chain: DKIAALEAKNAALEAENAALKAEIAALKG

APC1434-AA = molecular target: T27, APC1434-AA
T27 chain: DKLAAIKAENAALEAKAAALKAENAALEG

APC2405-AA = molecular target: T28, APC2405-AA
T28 chain: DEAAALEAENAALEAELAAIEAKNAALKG

APC4264-AA = molecular target: T29, APC4264-AA
T29 chain: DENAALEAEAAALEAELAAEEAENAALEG

APC4436-AA = molecular target: T30, APC4436-AA
T30 chain: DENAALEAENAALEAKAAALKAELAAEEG

APC9096-AA = molecular target: T31, APC9096-AA
T31 chain: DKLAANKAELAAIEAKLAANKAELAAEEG

APC9319-AA = molecular target: T32, APC9319-AA
T32 chain: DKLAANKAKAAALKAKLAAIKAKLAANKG

P6-AA-12HGe-M = molecular target: T33, P6-AA-12HGe-M
T33 chain: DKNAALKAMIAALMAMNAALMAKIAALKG

P6-AA-1HGe-H = molecular target: T34, P6-AA-1HGe-H
T34 chain: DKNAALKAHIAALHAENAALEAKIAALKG

P6-AA-1HGe-S = molecular target: T35, P6-AA-1HGe-S
T35 chain: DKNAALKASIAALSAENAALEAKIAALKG

P6-AA-1HGe-T = molecular target: T36, P6-AA-1HGe-T
T36 chain: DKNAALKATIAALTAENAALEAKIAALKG

4H2760-AA = molecular target: T37, 4H2760-AA
T37 chain: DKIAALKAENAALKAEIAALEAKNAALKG

4H2947-AA = molecular target: T38, 4H2947-AA
T38 chain: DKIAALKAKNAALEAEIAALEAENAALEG

4H3449-AA = molecular target: T39, 4H3449-AA
T39 chain: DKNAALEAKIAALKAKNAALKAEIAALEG

4H3974-AA = molecular target: T40, 4H3974-AA
T40 chain: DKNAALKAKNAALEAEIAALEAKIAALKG

4H3651-AA = molecular target: T41, 4H3651-AA
T41 chain: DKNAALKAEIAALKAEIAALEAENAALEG

4H486-AA = molecular target: T42, 4H486-AA
T42 chain: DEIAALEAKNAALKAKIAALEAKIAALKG

Binder: DENAALEAKIAALKAKIAALKAEIAALEG [4H1385-AA]
- interaction score (P6-AA-12HAA-H): 1.75
- interaction score (P6-AA-12HAA-V): 2.15

Binder: DENAALEAKIAALKAEIAALEAKIAALKG [4H1350-AA]
- interaction score (4H2211-AA): -1.32
- interaction score (4H233-AA): 0.257
- interaction score (4H2726-AA): -0.0467
- interaction score (4H278-AA): 0.443
- interaction score (4H3664-AA): 0.037
- interaction score (4H3922-AA): -0.898
- interaction score (4H662-AA): -1.35
- interaction score (4H816-AA): 1.16

Binder: DENAALEAEIAALEAKIAALEAKNAALKG [4H1064-AA]
- interaction score (4H1109-AA): -1.24
- interaction score (4H1391-AA): 1.33
- interaction score (4H2713-AA): -1.48
- interaction score (4H2742-AA): -1.78
- interaction score (4H3417-AA): -1.43
- interaction score (4H3628-AA): 1.07
- interaction score (4H3666-AA): -1.27

Binder: DEIAALEAENAALKAKNAALKAEIAALEG [4H249-AA]
- interaction score (4H2760-AA): 1.68
- interaction score (4H2947-AA): -1.55
- interaction score (4H3449-AA): -1.43
- interaction score (4H3974-AA): -0.0812

Binder: DENAALEAENAALKAKIAALKAEIAALEG [4H1257-AA]
- interaction score (4H3651-AA): -1.01
- interaction score (4H486-AA): 1.54

Results, then the binder that gave them:

- interaction score (P5-AA-12HGe-D): -1.24
- interaction score (P5-AA-1HAA-L): 2.39
- interaction score (P5-AA-1HAA-V): 2.23
- interaction score (P5-AA-1HAA-Y): 2.23
- interaction score (P5-AA-1HGe-S): 2.03
- interaction score (P5-AA-1HGe-W): 2.27
- interaction score (P5-AA-1HGe-Y): 2.36
Binder: DKNAALKAEIAALEAENAALEAKIAALKG [4H3606-AA]

- interaction score (4H1639-AA): -1.38
Binder: DENAALKAEIAALKAENAALKAEIAALKG [4H1626-AA]

- interaction score (4H2458-AA): -1.6
- interaction score (APC1434-AA): -1.56
- interaction score (APC2405-AA): -1.12
- interaction score (APC4264-AA): -1.79
- interaction score (APC4436-AA): -1.83
- interaction score (APC9096-AA): -2.08
- interaction score (APC9319-AA): -1.55
Binder: DENAALKAKIAALEAKNAALEAKIAALEG [4H1845-AA]

- interaction score (P6-AA-12HGe-M): 0.2
- interaction score (P6-AA-1HGe-H): 1.77
- interaction score (P6-AA-1HGe-S): 2.27
- interaction score (P6-AA-1HGe-T): 2.05
Binder: DENAALEAKIAALKAKNAALKAEIAALEG [4H1401-AA]

Reference: paper PMC10397247
